Laboratory results taken from patent publication US20170100463A1, “METHOD TO IMPROVE SAFETY AND EFFICACY OF ANTI-CANCER THERAPY” (CLS Therapeutics Limited, priority 2014, published 2017).

Key:
[1] = Gastrointestinal lesions after Etoposide/5-FU chemotherapy in rats; type: in vivo, male Wistar rats; conditions: for Total number of lesions per group: 16 rats; for Total number of lesions per group / Number of lesion free animals (percent) / Median number of lesions / Number of lesion free animals: Etoposide 200 mg/kg + 5-FU 400 mg/kg per os; for Total number of lesions per group / Median number of lesions: 36 hours; for Number of lesion free animals: of 16 rats
Method: Animals were divided into 4 groups of 16 rats each. Two hours after the Etoposide/5-FU challenge, rats were treated as follows: • 1. Group I: IV placebo (WFI); • 2.

L1210 leukemia cells = experiment: Survival of mice transplanted with L1210 leukemia cells; type: in vivo, DBA2 mice; conditions: AraC 1000 mg/kg IP Days 2, 5, 8; DNase II 15 or 45 mg/kg/day IP; alone or combined
Method: Treatment with DNase and AraC was initiated on Day 1 of experiment. Cytosine arabinoside (AraC; Cytosar; Pfizer) was injected IP at a dose of 1000 mg/kg on Days 2, 5 and 8. The injected doses were considered adequate for the model and injection route based on prior experiments (13-14). DNase II (Wornington) was injected IP at doses of 15 mg/kg/day and 45 mg/kg/day on Days 1, 3, 5, 8, 10, 12, 15, 17, and 19.
Animals were randomized into 6 experimental groups of 6 mice per group as follows: • 1. Group I: negative control (no treatment); • 2. Group II: positive control (animals treated with AraC); • 3. Group III: animals treated with AraC and 15 mg/kg DNase; • 4. Group IV: animals treated with AraC and 45 mg/kg DNase; • 5. Group V: animals treated with 15 mg/kg DNase, no AraC; • 6. Group VI: animals treated with 45 mg/kg DNase, no AraC.

[2] = Cyclophosphamide-induced neutropenia, white blood cell count; type: in vivo, BALB/C mice; conditions: mice, cyclophosphamide 200 mg/kg IP Day 1; for early phase decline in WBC count (FIG. 3): DNase I 25 mg/kg/day IV or GM-CSF 200 μg/kg/day SC Days 2-5
Method: 30 female 10-12 week old BALB/C mice (obtained from Rappolovo animal house) were used in this experiment. […] On Day 1, neutropenia was induced by a single IP injection of 200 mg/kg cyclophosphamide (Cyclophosphanum-LANS) in 200 μl of WFI. Starting on Day 2, mice were then treated as follows: • 1. Group I (n=10): control (no treatment); • 2. Group II (n=10): animals were treated with human recombinant DNase I (Pharmsynthez OJSC) at 25 mg/kg/day (50000 KU/kg/day) dose injected IV on Days 2-5; • 3. Group III (n=10): animals were treated with human recombinant GM-CSF (Neostim, Pharmsynthez OJSC) at 200 μg/kg/day dose injected subcutaneously (SC) on Days 2-5.
The white blood cell count (WBC) in each animal was monitored daily during the 10 day experiment using blood cell counter.

in vivo = experiment: in vivo
Source text: Group I: control group (no Doxorubicin, no DNase); • 2.
Animals were monitored during 2 weeks from the beginning of experiment for survival and weight.

[3] = Myocardial necrosis area in deceased rats challenged with doxorubicin; type: in vivo; conditions: doxorubicin 7.5 mg/kg, DNase I 15 mg/kg daily IP vs placebo
Method: FIG. 1 is a bar graph showing myocardial necrosis area in deceased rats challenged with sub-lethal IV doses of doxorubicin (7.5 mg/kg) and either daily IP injections of human recombinant DNase I (15 mg/kg) (black bar) or daily IP injections of placebo (WFI) (diagonal hatched bar). Serial myocardium microscopy samples from each heart were analyzed using an automated video analyzer to quantify the necrotic areas. The sum of necrotic area (Sna; nm^2) was calculated as a sum of necrotic areas in 30 serial slides from each individual autopsied heart (n=3 for DNase I-treated rats—black bar; n=5 for placebo-treated rats—diagonal hatched bar).
The hearts deceased rats challenged with sub-lethal doses of doxorubicin (7.5 mg/kg) from (Groups IV and V) were autopsied. Serial myocardium microscopy samples from each heart were analyzed using an automated video analyzer to quantify the necrotic areas. The sum of necrotic area (Sna; nm^2) was calculated as a sum of necrotic areas in 30 serial slides from each individual autopsied heart (n=3 for Group IV (FIG. 1, black bars); n=5 for Group V (FIG. 1, diagonal hatched bars)). Group IV received daily IP injections of human recombinant DNase I at 15 mg/kg dose, while Group V received daily IP injections of placebo (WFI).

Erlich carcinoma cells = experiment: Erlich carcinoma ascites tumor with radiotherapy: survival and body weight
Method: Radiotherapy was performed using a cobalt-60 teletherapy machine. The abdominal fields of the mice were treated by external irradiation. The fractionation was 200 cGy per day for 5 days. Mice were divided into 6 groups treated as follows: Group 1: radiotherapy only (external irradiation 200 cGy per day for 5 days); Group 2: recombinant human DNAse I (Pharmsynthez) 20 mg/kg/day administered intramuscularly in 2 daily doses; Group 3: recombinant human DNAse I (Pharmsynthez) 40 mg/kg/day administered intramuscularly in 2 daily doses; Group 4: radiotherapy (external irradiation 200 cGy per day for 5 days) plus recombinant human DNAse I (Pharmsynthez) 20 mg/kg/day administered intramuscularly in 2 daily doses; Group 5: radiotherapy (external irradiation 200 cGy per day for 5 days) plus recombinant human DNAse I (Pharmsynthez) 40 mg/kg/day administered intramuscularly in 2 daily doses. Group 6 was a control group receiving placebo (water for injection).

[4] = Doxorubicin 7.5 mg/kg/day IV 5 days + DNase I 15 mg/kg/day IP (Group IV) or placebo (Group V)
[5] = Doxorubicin 10.0 mg/kg/day IV 5 days + DNase I 15 mg/kg/day IP (Group VI) or placebo (Group VII)
[6] = rats, Doxorubicin 7.5 mg/kg/day IV 5 days + DNase I 15 mg/kg/day IP (Group IV) or placebo (Group V), monitored 2 weeks
[7] = rats, Doxorubicin 10.0 mg/kg/day IV 5 days + DNase I 15 mg/kg/day IP (Group VI) or placebo (Group VII), monitored 2 weeks
[8] = Group 2: DNAse I 20 mg/kg/day intramuscularly, no radiotherapy
[9] = Group 3: DNAse I 40 mg/kg/day intramuscularly, no radiotherapy
[10] = Group 4: radiotherapy 200 cGy per day for 5 days plus DNAse I 20 mg/kg/day intramuscularly
[11] = Group 5: radiotherapy 200 cGy per day for 5 days plus DNAse I 40 mg/kg/day intramuscularly

CN/C(=N/CCSCc1nc[nH]c1C)NC#N [Cimetidine, cimetidine, reference compound]
Total number of lesions per group ([1]; treatment 50 mg/kg IV): 40 | Number of lesion free animals (percent) ([1]; treatment 50 mg/kg IV): 62.5% | Median number of lesions ([1]; treatment 50 mg/kg IV): 2.5 ± 1.1 | Number of lesion free animals ([1]; treatment 50 mg/kg IV): 10

Nc1ccn([C@@H]2O[C@H](CO)[C@@H](O)[C@@H]2O)c(=O)n1 [AraC, cytosine arabinoside]
survival after implantation of L1210 leukemia cells (FIG. 4) (L1210 leukemia cells): better survival rates versus non-treated mice

GM-CSF: human recombinant GM-CSF (Neostim, Pharmsynthez OJSC)
early phase decline in WBC count (FIG. 3) [2]: not able to prevent it

COc1cccc2c1C(=O)c1c(O)c3c(c(O)c1C2=O)C[C@@](O)(C(=O)CO)C[C@@H]3O[C@H]1C[C@H](N)[C@H](O)[C@H](C)O1 [Doxorubicin, reference compound]
Median survival of deceased rats (in vivo; [4]): 8.2 ± 1.0 days | Median survival of deceased rats (in vivo; [5]): 6.6 ± 0.9 days | Median survival of deceased rats (in vivo; male, Wistar, rat, in vivo): 12 ± 2.1 days | Number of dead/out of total in group (in vivo; male, Wistar, rat, in vivo): 3/6 | LD50 at 2 weeks (in vivo; male, Wistar, rat, in vivo, iv): 3.75 mg/kg | Number of dead/out of total in group (in vivo; [6]): 5/6 | Number of dead/out of total in group (in vivo; [7]): 6/6

B1: human recombinant DNase I: human recombinant DNase I (Pharmsynthez OJSC), deoxyribonuclease enzyme (protein, UniProt P24855 23-282, looked up)
Deoxyribonuclease-1: LKIAAFNIQTFGETKMSNATLVSYIVQILSRYDIALVQEVRDSHLTAVGKLLDNLNQDAPDTYHYVVSEPLGRNSYKERYLFVYRPDQVSAVDSYYYDDGCEPCGNDTFNREPAIVRFFSRFTEVREFAIVPLHAAPGDAVAEIDALYDVYLDVQEKWGLEDVMLMGDFNAGCSYVRPSQWSSIRLWTSPTFQWLIPDSADTTATPTHCAYDRIVVAGMLLRGAVVPDSALPFNFQAAYGLSDQLAQAISDHYPVEVMLK
Total number of lesions per group ([1]; treatment 1.5 mg/kg IV): 60 | Total number of lesions per group ([1]; treatment 50 mg/kg IV): 16 | achieved protection against chemotherapy-induced ulceration ([1]; DNase I 50 mg/kg compared to 1.5 mg/kg DNase I and 50 mg/kg cimetidine): significantly superior | Number of lesion free animals (percent) ([1]; treatment 1.5 mg/kg IV): 31.25% | Median number of lesions ([1]; treatment 1.5 mg/kg IV): 3.75 ± 1.53 | Number of lesion free animals (percent) ([1]; treatment 50 mg/kg IV): 75% | Median number of lesions ([1]; treatment 50 mg/kg IV): 1.00 ± 0.69 | Number of lesion free animals ([1]; treatment 1.5 mg/kg IV): 5 | Number of lesion free animals ([1]; treatment 50 mg/kg IV): 12 | macroscopic appearance of stained stomach (FIG. 2A) ([1]; oral Etoposide 200 mg/kg and 5-FU 400 mg/kg followed by IV DNase I 50 mg/kg): does not have any macroscopic abnormalities | Median survival of deceased rats (in vivo; [4]): 10.3 ± 1.4 days | Median survival of deceased rats (in vivo; [5]): 6.2 ± 1.0 days | Body weight of surviving rats, Baseline (in vivo; rat, in vivo): 168 ± 4 grams | Body weight of surviving rats, Day 4 (in vivo; rat, in vivo): 160 ± 6 grams | Body weight of surviving rats, Day 7 (in vivo; rat, in vivo): 158 ± 5 grams | Body weight of surviving rats, Day 14 (in vivo; rat, in vivo): 164 ± 6 grams | Median survival of deceased rats (in vivo; rat, in vivo): 7 days | Number of dead/out of total in group (in vivo; rat, in vivo): 1/6 | Number of dead/out of total in group (in vivo; [6]): 3/6 | Number of dead/out of total in group (in vivo; [7]): 6/6 | myocardial necrosis area (sum of necrotic area, FIG. 1) [3]: decreases the myocardial necrosis area | % Survival on Day 16 (Erlich carcinoma cells; [8]): 40% | Change in Median Body Weight on Day 16 (Erlich carcinoma cells; [8]): +2 g | % Survival on Day 16 (Erlich carcinoma cells; [9]): 50% | Change in Median Body Weight on Day 16 (Erlich carcinoma cells; [9]): +1.5 g | % Survival on Day 16 (Erlich carcinoma cells; [10]): 80% | Change in Median Body Weight on Day 16 (Erlich carcinoma cells; [10]): 0 | % Survival on Day 16 (Erlich carcinoma cells; [11]): 100% | Change in Median Body Weight on Day 16 (Erlich carcinoma cells; [11]): +1.5 g | neutropenia induced by cyclophosphamide (WBC, FIG. 3) ([2]; DNase I 25 mg/kg/day IV Days 2-5): ameliorates neutropenia | early phase decline in WBC count (FIG. 3) [2]: prevents the typical early phase decline in WBC count
